Reference: patent US20260055150A1 (REGENTS OF THE UNIVERSITY OF MICHIGAN, published 2026)
Where no end group is shown, it is not given here.

T1: claudin-1 on colonic patient-derived organoid cells (human, UniProt O95832 1-211)
T1 construct: whole, on cells; also called CLN1
T1 sequence (looked up): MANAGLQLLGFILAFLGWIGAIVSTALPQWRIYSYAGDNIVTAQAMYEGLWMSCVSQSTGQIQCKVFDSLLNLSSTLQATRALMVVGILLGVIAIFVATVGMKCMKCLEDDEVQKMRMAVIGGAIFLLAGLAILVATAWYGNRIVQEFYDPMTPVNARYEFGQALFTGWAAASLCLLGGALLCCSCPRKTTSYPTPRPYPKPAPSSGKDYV


How the values were obtained:
[1] = target: T1, claudin-1 on colonic patient-derived …; experiment: ex vivo immunofluorescence staining of resected tissue
Excerpt: After completion of in vivo imaging, the results were validated using IF.

[2] = target: T2, epidermal growth factor receptor (EGFR) on patient-derived organoid cells (human, UniProt P00533 25-1210); experiment: in vivo wide-field fluorescence endoscopy of PDO implanted in mouse colon, peptide given intravenously
T2 construct: whole, on cells
Description: Cultures were harvested from Matrigel in cold DPBS, triturated 30× with a 1 mL pipette tip, and centrifuged at 300 g for 3 min at 4° C. […] The colonoid fragments were further dissociated by 20× pipetting with a 1 mL pipette tip. […] Slow centrifugation at 100 g was performed to reduce the single cell content. The cell aggregates were resuspended in cold DPBS supplemented with 5% Matrigel and 10 µM Y27632. 1.8×10⁶ cell aggregates in 200 μL were transplanted per mouse as described previously. The implants were monitored over time using a rigid wide-field endoscope and a flexible fiber-coupled endomicroscope to localize the PDO and visualize EGFR expression with sub-cellular resolution.
Organoids grown in vitro (FIG. 17A) were implanted on day 7 post-DSS treatment. For implantation, in vitro grown PDOs were disrupted into smaller aggregates in 200 μL volume and were implanted intrarectally in anesthetized mice. The rectum was closed immediately using tissue glue. After several weeks to establish viability, the implanted PDOs were imaged using a rigid wide-field endoscope. The fluorescently-labeled peptide QRH*-Cy5 was administered intravenously at a dose of 300 μM in 200 μL of PBS.

Row | binding result [1] | binding result [2] | Binder
1 | binds | – | RTSPSSR (also: Cy5.5 label, attachment not given here, also called peptide specific for claudin-1) [RTS*-Cy5.5 (Cy5.5-labeled peptide RTSPSSR)]
2 | – | binds | QRHKPRE (also: Cy5 label, attachment not given here, also called Cy5QRH*-Cy5) [QRH*-Cy5 (QRHKPRE labeled with Cy5)]
